Assay results: US7193044B1, “Compounds and methods for regulating apoptosis, and methods of making and screening for compounds that regulate apoptosis” (Immunogen, Inc., priority 2000, dated 2007)

Experiments:
[1] = biological target: GST-Bcl-XL (Homo sapiens, UniProt Q07817); experiment: GST-Bcl-XL binding (glutathione bead pull-down) of BAD; details: 35S-labeled in vitro translated full-length protein incubated with PKA and ATP
Description: In order to test whether the additional and novel phosphorylation site on BAD has functional significance, the effect on BAD binding to Bcl-XL was examined. Recombinant Bcl-XL tagged with the glutathione S-transferase (“GST”) moiety (“GST-Bcl-XL”) was incubated with WCL prepared from COS-7 cells expressing the double mutant HA-BAD S112A/S136A, and the HA-BAD S112A/S136A that bound to the GST-Bcl-XL was precipitated with GST beads. […] No HA-BAD S112A/S136A was precipitated with GST beads from the WCL that were not incubated with GST-Bcl-XL (FIG. 1, lane 4).
The ability of full-length BAD and mutant BAD S155A to bind Bcl-XL was also determined (FIG. 3(c)). Full-length BAD (“WT”) and mutant BAD S155A (“S155A”) were produced by in vitro translation and labeled with ^35S-methionine therein. […] Proteins bound to the beads (“Bound”) (lower panel) and samples of the reactions collected prior to incubation with the beads (“Total”) (upper panel) were analyzed by SDS-PAGE followed by autoradiography.
For Bcl-XL binding studies, GST-Bcl-XL (1 mg/ml final concentration) was added to cell lysates derived from BAD expressing cells, and incubated with rotation for two hours at 4° C. […] The beads were then washed with RIPA buffer, the proteins were separated by SDS-PAGE and associated BAD detected by probing the blot with anti-HA antibody.

[2] = system: BAD Ser155 phosphorylation in HeLa cells; experiment: BAD phosphorylation in HeLa cells (western blot band-shift / anti-phospho-Ser155 antibody); format: cell-based, human; details: HeLa cells
Description: A mammalian expression vector encoding mutant HA-BAD S155A, derived from the shorter murine BAD of SEQ ID NO:3, was constructed. HA-BAD S155A has an amino acid sequence wherein the serine at a position corresponding to Ser155 is substituted with alanine. A western blot was performed on WCL prepared from cells expressing the shorter murine BAD (SEQ ID NO:3), HA-BAD S112A, HA-BAD S136A, or HA-BAD S155A, and probed with anti-HA antibody.
A western blot analysis, probed with anti-HA antibody, was performed on lysates produced from the Forskolin treated and untreated (control) cells to determine whether Forskolin could induce the phosphorylation BAD or mutant BAD.
HeLa cells transiently expressing HA-BAD, HA-BAD S155A, HA-BAD S112A/S136A, or HA-BAD S112A/S136A/S155A were treated with Forskolin or a buffer control.
The HA-BAD S112A/S136A double mutant was transiently expressed in HeLa cells, and transfected cell cultures were treated with each of the GPCR ligands, individually and as a group. A western blot analysis, probed with anti-HA antibody, was performed on lysates produced from the treated and untreated (negative control) cells. […] Forskolin (FK) and no treatment (−) were positive and negative controls, respectively (FIG. 6(a), […], respectively).
Non-transfected HeLa cells were treated with Forskolin or L-epinephrine, followed by western blot analysis of cell lysates using anti-BAD antibodies.
Transformants were treated with L-epinephrine, then lysed and subjected to anti-HA western blot analysis.
To further test whether phosphorylation of Ser155 is dependent on the PI 3-kinase/Akt pathway, HeLa cells were transfected with the mutant HA-BAD S155A and pretreated with Wortmannin, an inhibitor of PI 3-kinase. These cells were then stimulated with epidermal growth factor (EGF), lysed and analyzed by western blot analysis.
For immunoprecipitation of all HA-BAD species, 1 μg of the anti-HA antibody was added to the cell lysates, and incubated at 4° C. for one hour. Protein G agarose (Pierce) was then added (50 μl/fraction of 50% slurry) and followed by a one hour incubation at 4° C. Beads were washed with RIPA buffer, boiled in loading buffer (2% SDS, 10% glycerol, 5% β-ME, 60 mM Tris, pH 6.8, 0.002% Bromophenol Blue) and loaded onto polyacrylamide gels. After electrophoresis, proteins were transferred to nitrocellulose membranes, and blots blocked in western wash buffer (40 mM Tris, pH 8.0, 150 mM NaCl, 0.2% NP-40) with 5% BSA for one hour at room temperature. Blots were incubated with primary antibody diluted in western wash buffer with 3% BSA at room temperature for 1–2 hours, washed with western wash buffer and incubated with secondary HRP-coupled antibody diluted in western wash buffer with 1.5% BSA, and washed extensively. Polypeptides were detected with the ECL chemiluminescence according to the manufacturers instructions (Amersham).

[3] = biological target: T1, PKA (catalytic subunit from bovine heart) (Bos taurus, UniProt P00517); experiment: In vitro kinase assay, phosphorylation of BAD and BAD mutants by PKA; format: biochemical; details: 35S-labeled in vitro translated protein
T1 construct: 11 units PKA (catalytic subunit from bovine heart, Calbiochem); purchased Calbiochem; host or cells: bovine heart
Description: The ability of full-length BAD and mutant BAD S155A to bind Bcl-XL was also determined (FIG. 3(c)). Full-length BAD (“WT”) and mutant BAD S155A (“S155A”) were produced by in vitro translation and labeled with ^35S-methionine therein. The labeled proteins were then incubated with PKA (“+”) in the presence of unlabeled ATP or a buffer control (“−”). Following the kinase reactions, aliquots of each sample of the four samples were incubated with either GST or GST-Bcl-XL. The protein complex were captured on glutathione-agarose beads. Proteins bound to the beads (“Bound”) (lower panel) and samples of the reactions collected prior to incubation with the beads (“Total”) (upper panel) were analyzed by SDS-PAGE followed by autoradiography.
The GST-tagged BAD and BAD mutants were then expressed individually in cells and the purified GST-tagged polypeptides incubated with purified PKA, in the presence of ^32P radiolabel. A western blot, probed with anti-BAD antibody, was performed on the incubated GST-tagged BAD and BAD mutants to determine whether PKA could phosphorylate the BAD and/or mutant BAD in vitro. The GST-tagged BAD and BAD mutants phosphorylated by PKA could be detected directly by autoradiography due to the incorporation of ^32P radiolabel when the polypeptides were phosphorylated (FIG. 4, upper panel), whereas the total amount of BAD and mutant BAD present in the in vitro reaction was detected by the anti-BAD antibody probe (FIG. 4, lower panel).
In vitro kinase assays were carried out in 30 μl volumes containing 10 mM HEPES buffer, pH 7.5, 100 mM NaCl, 12 mM MgCl2, 1 mM dithiothreitol, […] γ^32P-ATP ([…], NEN), 11 units PKA (catalytic subunit from bovine heart, Calbiochem), and 1 μg purified GST-BAD. Reactions were incubated for 30 min at 30° C. and terminated by the addition of SDS-PAGE sample buffer. Samples were run on a 4–20% SDS-PAGE gel (Novex), transferred to a nitrocellulose membrane and phosphorylated GST-BAD was visualized by autoradiography. To verify that equal amounts of GST-BAD substrates were used, the nitrocellulose was subjected to western blot analysis with 133 ng/ml anti-BAD antibody (C-20).

[4] = system: HeLa cells; experiment: Beta-gal ELISA apoptosis assay in transfected HeLa cells; format: cell-based, human; details: in the presence of Forskolin after 24 hours
Description: Because BAD Ser155 phosphorylation, like Ser136 phosphorylation, prevents BAD from binding to Bcl-XL (FIG. 1), it was possible that by analogy, Ser155 dephosphorylation promotes cell death. To test this idea, HeLa cells were co-transfected with BAD or various BAD serine mutants and a β-gal reporter plasmid. Twenty-four hours post-transfection, cell viability was analyzed by β-gal ELISA.
To test this idea, HeLa cells were again co-transfected with BAD or various BAD serine mutants and a β-gal reporter plasmid. Forskolin was then added to half of the cultures while the other half was left untreated. Beta-gal ELISAs were performed 24 hours post transfection. […] Thus, phosphorylation of Ser155 rescues cells from BAD-induced apoptosis, while substitution of Ser155 with a nonphosphorylatable residue results in increased cell death and the failure of cells to be protected from induced PKA activity.
Beta-gal ELISA assays were performed using the β-gal ELISA system from Boehringer Mannheim, according to manufacture's instructions. Cells were transfected with BAD (or BAD mutant) and β-gal in a ratio of 5:1. The transfected cells were trypsinized and distributed into 96-well tissue culture plates. Twenty-four hours after transfection, cell extracts were obtained by lysing the cells in lysis buffer. Cell extracts (200 μl) were then added to anti-β-gal-coated microtiter plates (MTP). The MTPs were foil-covered and incubated for one hour at 37° C. Solutions were then decanted and the MTPs were washed, followed by the addition of 200 μl of anti-β-gal-DIG working solution, and incubation for an additional hour as described above. Solutions were again decanted, the MTPs washed and 200 μl of DIG-POD working solution were added. The MTPs were incubated for another hour at 37° C., the solution decanted, and the wells washed. 200 μl of substrate with enhancer were added to each well and incubated at room temperature until color development. The β-gal activity was measured by the absorbance of the sample at […]. Data were based on triplicate wells with standard deviations calculated.

Sequence of GST-Bcl-XL (Q07817 whole entry): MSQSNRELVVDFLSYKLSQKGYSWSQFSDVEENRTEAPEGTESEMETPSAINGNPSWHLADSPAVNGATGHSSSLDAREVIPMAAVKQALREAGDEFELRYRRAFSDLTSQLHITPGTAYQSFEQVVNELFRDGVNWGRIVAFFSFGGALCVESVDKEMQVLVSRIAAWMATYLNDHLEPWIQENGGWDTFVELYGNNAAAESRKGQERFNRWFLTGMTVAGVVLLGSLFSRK

gel-mobility shift induced by phosphorylation by PKA [3]: induced a gel-mobility shift
B1: wild-type BAD: shorter murine BAD of SEQ ID NO:3 (162 aa), used untagged, HA-tagged or GST-tagged (protein, listed as Mus musculus)
chain: MFQIPEFEPSEQEDASATDRGLGPSLTEDQPGPYLAPGLLGSNIHQQGRAATNSHHGGAGAMETRSRHSSYPAGTEEDEGMEEELSPFRGRSRSAPPNLWAAQRYGRELRRMSDEFEGSFKGLPRPKSAGTATQMRQSAGWTRIIQSWWDRNLGKGGSTPSQ
modifications: optional HA or GST tag
binding to GST-Bcl-XL after phosphorylation by PKA [1]: blocked the ability of BAD to bind to Bcl-XL
band-shift (phosphorylation) of expressed BAD construct in response to L-epinephrine [2]: significant band-shift
more cells surviving transient expression than with the BAD S155A mutant [4]: Approximately 50%
